The labels stand for the following.
B1: Humabody VH 1.90 (VHH)
VHH: EVQLVESGGGLVQPGGSLRLSCAASGFTFSSHWMTWVRQAPGKGLEWVAHIKEDGSEKYYEDSVEGRFTVSRDNAKNSVYLQMNSLRAEDTAVYYCARGGDGYSDSHFGVDVWGQGTTVTVSS
notes: human single VH domain
B2: Humabody VH 1.99 (VHH)
VHH: EVQLVESGGGLVQPGGSLRLSCAASGFTFSSHWMTWFRQAPGKGLEWVAHIKEDESEKYYVDSVKGRFTISRDNAKNSLYLQMNSLRAEDTAVYYCARGGDGYSDSHFGVDVWGQGTTVTVSS
notes: human single VH domain
B3: Humabody VH 1.95 (VHH)
VHH: EVQLVESGGGLVQPGGSLRLSCAASGFTFSSHWMTWVRQAPGKGLEWVAHIKEDGSEKYYVDSVKGRFTISRDNAKNSLYLQMNSLRAEDTAVYYCARGGDGYSDSHFGVDVWGQGTTVTVSS
notes: human single VH domain
B4: Humabody VH 1.93 (VHH)
VHH: EVQLVESGGGLVQPGGSLRLSCAASGFTFSSHWMTWFRQAPGKGLEWVAHIKEDGSEKYYEDSVEGRFTISRDNAKNSVYLQMNSLRAEDTAVYYCARGGDGYSDSHFGVDVWGQGTTVTVSS
notes: human single VH domain
B5: Humabody VH 1.92 (VHH)
VHH: EVQLVESGGGLVQPGGSLRLSCAASGFTFSSHWMTWFRQAPGKGLEWVAHIKEDGSEKYYEDSVKGRFTVSRDNAKNSVYLQMNSLRAEDTAVYYCARGGDGYSDSHFGVDVWGQGTTVTVSS
notes: human single VH domain
B6: Humabody VH 1.91 (VHH)
VHH: EVQLVESGGGLVQPGGSLRLSCAASGFTFSSHWMTWFRQAPGKGLEWVAHIKEDGSEKYYVDSVKGRFTVSRDNAKNSVYLQMNSLRAEDTAVYYCARGGDGYSDSHFGVDVWGQGTTVTVSS
notes: human single VH domain
B7: Humabody VH 1.94 (VHH)
VHH: EVQLVESGGGLVQPGGSLRLSCAASGFTFSSHWMTWFRQAPGKGLEWVAHIKEDGSEKYYEDSVEGRFTVSRDNAKNSLYLQMNSLRAEDTAVYYCARGGDGYSDSHFGVDVWGQGTTVTVSS
notes: human single VH domain
B8: Humabody VH 1.101 (VHH)
VHH: EVQLVESGGGLVQPGGSLRLSCAASGFTFSSHWMTWFRQAPGKGLEWVAHIKEGGSEKYYVDSVKGRFTISRDNAKNSLYLQMNSLRAEDTAVYYCARGGDGYSDSHFGVDVWGQGTTVTVSS
notes: human single VH domain
B9: Humabody VH 1.105 (VHH)
VHH: EVQLVESGGGLVQPGGSLRLSCAASGFTFSSHWMTWFRQAPGKGLEWVAHIKEDESEKYYVDSVKGRFTISRDNAKNSLYLQMNSLRAEDTAVYYCARGGVGYSISHFGVDVWGQGTTVTVSS
notes: human single VH domain
B10: Humabody VH 1.104 (VHH)
VHH: EVQLVESGGGLVQPGGSLRLSCAASGFTFSSHWMTWFRQAPGKGLEWVAHIKEDGSEKYYVDSVKGRFTISRDNAKNSLYLQMNSLRAEDTAVYYCARGGVGYSDSHFGVDVWGQGTTVTVSS
notes: human single VH domain
B11: Humabody VH 1.102 (VHH)
VHH: EVQLVESGGGLVQPGGSLRLSCAASGFTFSSHWMTWFRQAPGKGLEWVAHIKEEGSEKYYVDSVKGRFTISRDNAKNSLYLQMNSLRAEDTAVYYCARGGDGYSDSHFGVDVWGQGTTVTVSS
notes: human single VH domain
B12: Humabody VH 1.106 (VHH)
VHH: EVQLVESGGGLVQPGGSLRLSCAASGFTFSSHWMTWFRQAPGKGLEWVAHIKEDESEKYYVDSVKGRFTISRDNAKNSLYLQMNSLRAEDTAVYYCARGGEGYSISHFGVDVWGQGTTVTVSS
notes: human single VH domain
B13: Humabody VH 1.98 (VHH)
VHH: EVQLVESGGGLVQPGGSLRLSCAASGFTFSSHWMTWVRQAPGKGLEWVAHIKEDESEKYYVDSVKGRFTISRDNAKNSLYLQMNSLRAEDTAVYYCARGGEGYSISHFGVDVWGQGTTVTVSS
notes: human single VH domain
B14: Humabody VH 1.97 (VHH)
VHH: EVQLVESGGGLVQPGGSLRLSCAASGFTFSSHWMTWVRQAPGKGLEWVAHIKEDESEKYYVDSVKGRFTISRDNAKNSLYLQMNSLRAEDTAVYYCARGGVGYSISHFGVDVWGQGTTVTVSS
notes: human single VH domain
B15: Humabody VH 1.96 (VHH)
VHH: EVQLVESGGGLVQPGGSLRLSCAASGFTFSSHWMTWFRQAPGKGLEWVAHIKEDGSEKYYVDSVKGRFTISRDNAKNSLYLQMNSLRAEDTAVYYCARGGDGYSDSHFGVDVWGQGTTVTVSS
notes: human single VH domain
B16: Humabody VH 1.100 (VHH)
VHH: EVQLVESGGGLVQPGGSLRLSCAASGFTFSSHWMTWFRQAPGKGLEWVAHIKEDESEKYYVDSVKGRFTISRDNAKNSLYLQMNSLRAEDTAVYYCARGGDGYSISHFGVDVWGQGTTVTVSS
notes: human single VH domain
B17: Humabody VH 1.103 (VHH)
VHH: EVQLVESGGGLVQPGGSLRLSCAASGFTFSSHWMTWFRQAPGKGLEWVAHIKEDGSEKYYVDSVKGRFTISRDNAKNSLYLQMNSLRAEDTAVYYCARGGEGYSDSHFGVDVWGQGTTVTVSS
notes: human single VH domain
B18: Humabody VH 1.107 (VHH)
VHH: EVQLVESGGGLVQPGGSLRLSCAASGFTLSNYWMNWVRQAPGKGLEWVANINQDGSERYYVDSVKGRFTISRDNAKNSLYLQMSSLRAEDTAVYFCARGGEGYGVDHYGLDVSGQGTTVTVSS
notes: human single VH domain
B19: Humabody VH 1.110 (VHH)
VHH: EVQLVESGGGLVQPGGSLRLSCAASGFTLSNYWMNWVRQAPGKGLEWVANINQDGSERYYVDSVKGRFTISRDNAKNSLYLQMNSLRAEDTAVYFCARGGEGYGVDHYGLDVSGQGTTVTVSS
notes: human single VH domain
B20: Humabody VH 1.109 (VHH)
VHH: EVQLVESGGGLVQPGGSLRLSCAATGFTLSNYWMNWVRQAPGKGLEWVANINQDGSERYYVDSVKGRFTISRDNAKNSLYLQMSSLRAEDTAVYYCARGGEGYGVDHYGLDVSGQGTTVTVSS
notes: human single VH domain
B21: Humabody VH 1.108 (VHH)
VHH: EVQLVESGGGLVQPGGSLRLSCAATGFTLSNYWMNWVRQAPGKGLEWVANINQDGSERYYVDSVKGRFTISRDNAKNSLYLQMNSLRAEDTAVYFCARGGEGYGVDHYGLDVSGQGTTVTVSS
notes: human single VH domain
B22: Humabody VH 2.41 (VHH)
VHH: EVQLVESGGGLVKPGGSLRLSCAASGFTFSDYYMSWFRQAPGKGLEWVSYISGSGDIIDYADSVKGRFTISRDNAKNSLYLQMNNLRAEDTAVYHCAREDSRLTGTTDFDNWGQGTLVTVSS
notes: human single VH domain
B23: Humabody VH 2.45 (VHH)
VHH: EVQLVESGGGLVKPGGSLRLSCAASGFTFSDYYMSWFRQAPGKGLEWVSYISGSGDIIDYADSVKGRFTISRDNAKNSLYLQMNNLRAEDTAVYYCAREDSRLTGTTDFDNWGQGTLVTVSS
notes: human single VH domain
B24: Humabody VH 2.49 (VHH)
VHH: EVQLVESGGGLVKPGGSLRLSCAASGFTFSDYYMSWIRQAPGKGLEWVSYISGSGDIIDYADSVKGRFTISRDNAKNSLYLQMNSLRAEDTAVYYCAREDPRLTGTTDFDNWGQGTLVTVSS
notes: human single VH domain
B25: Humabody VH 2.50 (VHH)
VHH: EVQLVESGGGLVKPGGSLRLSCAASGFTFSDYYMSWFRQAPGKGLEWVSYISGSGDIIDYADSVKGRFTISRDNAKNSLYLQMNSLRAEDTAVYYCAREDARLTGTTDFDNWGQGTLVTVSS
notes: human single VH domain
B26: Humabody VH 2.48 (VHH)
VHH: EVQLVESGGGLVKPGGSLRLSCAASGFTFSDYYMSWIRQAPGKGLEWVSYISGSGDIIDYADSVKGRFTISRDNAKNSLYLQMNSLRAEDTAVYYCAREDARLTGTTDFDNWGQGTLVTVSS
notes: human single VH domain
B27: Humabody VH 2.46 (VHH)
VHH: EVQLVESGGGLVKPGGSLRLSCAASGFTFSDYYMSWIRQAPGKGLEWVSYISGSGDIIDYADSVKGRFTISRDNAKNSLYLQMNSLRAEDTAVYYCAREDSRLTGTTDFDNWGQGTLVTVSS
notes: human single VH domain
B28: Humabody VH 2.51 (VHH)
VHH: EVQLVESGGGLVKPGGSLRLSCAASGFTFSDYYMSWFRQAPGKGLEWVSYISGSGDIIDYADSVKGRFTISRDNAKNSLYLQMNSLRAEDTAVYYCAREDPRLTGTTDFDNWGQGTLVTVSS
notes: human single VH domain
B29: Humabody VH 2.42 (VHH)
VHH: EVQLVESGGGLVKPGGSLRVSCAASGFTFSDYYMSWIRQAPGKGLEWVSYISGSGDIIDYADSVKGRFTISRDNAKNSLYLQMNNLRAEDTAVYHCAREDSRLTGTTDFDNWGQGTLVTVSS
notes: human single VH domain
B30: Humabody VH 2.47 (VHH)
VHH: EVQLVESGGGLVKPGGSLRLSCAASGFTFSDYYMSWFRQAPGKGLEWVSYISGSGDIIDYADSVKGRFTISRDNAKNSLYLQMNSLRAEDTAVYYCAREDSRLTGTTDFDNWGQGTLVTVSS
notes: human single VH domain

For the assay, the target named is T1, human CD137 expressed on the surface of CHO cells (human, UniProt Q07011 24-255).
T1 construct: Also used for the Jurkat reporter cells that express human CD137 (functional rows); also called CHO human CD137 cells; CHO huCD137
T1 sequence (Q07011 24-255 limits assumed): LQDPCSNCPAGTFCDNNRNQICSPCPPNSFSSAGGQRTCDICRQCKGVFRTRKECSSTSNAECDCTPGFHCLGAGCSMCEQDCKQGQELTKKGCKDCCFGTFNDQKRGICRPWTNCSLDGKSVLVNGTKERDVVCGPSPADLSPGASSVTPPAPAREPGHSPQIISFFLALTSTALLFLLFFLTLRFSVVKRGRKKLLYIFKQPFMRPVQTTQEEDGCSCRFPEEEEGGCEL
Kind of assay: FMAT ligand inhibition, CD137 Ligand on CHO human CD137 cells. How it is done: In parallel to the binding assay, periplasmic extracts were tested for their ability to inhibit the interaction of human CD137 ligand protein with CHO human CD137 cells in an FMAT format. Total binding controls containing diluted periplasmic extract sample buffer and non-specific binding controls containing excess non-Fc tagged competitor were set up on each plate for data normalisation. Fluorescence signal was measured using the TTP Mirrorball and the FL2 median mean fluorescence intensity of gated used for the data normalisation. The data was expressed as a % of the total binding control (% control) after subtraction of the background signal determined from the non-specific binding control wells.
The ability of purified Humabody VH to inhibit the binding of CD137 Ligand to CHO human CD137 cells was measured in the FMAT ligand inhibition assay essentially as described in Example 6. VH inhibited the binding of human CD137 Ligand to human CD137.
Usually IC50 stands for the concentration at which inhibition is half-maximal. A lower IC50 goes with inhibition by little substance. B1: the midpoint of inhibition, the IC50, lay at 7.8 nM.
The value for B2 was 1.5 nM.
Take B3: the IC50 stood at 24 nM.
B4 showed an IC50 of 0.7 nM.
For the molecule B5, half-maximal inhibition (IC50) was put at 2.9 nM.
B6 showed an IC50 of 1.9 nM. Against the preceding molecule, the IC50 is about 1.5-fold lower.
Take B7: the IC50 worked out at 0.8 nM.
Take B8: half-maximal inhibition (IC50) required 7.9 nM.
The molecule B9 yielded an IC50 of 2.8 nM.
With B10, the 50% inhibitory concentration (IC50) is 1.1 nM. This IC50 is about 2.5-fold lower than that of the molecule before.
The molecule B11 had an IC50 of 1.7 nM.
The molecule B12 yielded an IC50 of 2.1 nM.
Regarding B13, the 50% inhibitory concentration (IC50) came out at 4.7 nM.
In turn, B14 showed an IC50 of 3.8 nM.
The molecule B15 had an IC50 of 2.7 nM. This IC50 and that of the molecule before are within 1.5-fold of each other.
In turn, B16 came in with an IC50 of 1.4 nM. Compared with the last molecule, the IC50 is about 1.9-fold lower.
For the molecule B17, the IC50 was 1.3 nM.
The value for B18 was 0.55 nM; that for B19 was 0.81 nM.
The result for B20 reads 0.9 nM.
In turn, B21 showed an IC50 of 0.5 nM. Compared with the last molecule, the IC50 is about 1.8-fold lower.
As to B22, the IC50 came out at 16 nM. This IC50 is about 32-fold higher than that of the molecule before.
On to B23, for which the IC50 is 5.3 nM.
With B24, the IC50 turned out to be 42 nM.
Consider B25, for which the IC50 came out at 14 nM.
B26 came in with an IC50 of 86 nM. Compared with the last molecule, the IC50 is about 6.1-fold higher.
Molecule B27 returned an IC50 of 78 nM.
The result for B28 reads 27 nM; that for B29, 200 nM; that for B30, 8.8 nM.

The values are drawn from patent publication US20200362047A1 (CRESCENDO BIOLOGICS, published 2020).
